For 94 variants, protein stability index results are on record in the supplement of paper PMC10567573.

To fix the notation:
B1: CPXM2 (parent)
chain: EILGCPLPDPNNYYHRRNEMTTTD
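Further: lentivirally expressed fusions sorted by FACS into six bins by GFP to DsRed ratio, PSI derived from sequencing read proportions per bin multiplied by bin number.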

The data set covers variants of B1. Put plainly: protein stability index of a GFP-peptide fusion (GPS, HEK-293T) (PSI 1-6); higher = more stable. The note with it: c terminus: a fixed tail appended.
Consider IILGCPLPDPNNYYHRRNEMTTTD [E1I], for which the protein stability index turned out to be 2.52.
The value for NILGCPLPDPNNYYHRRNEMTTTD [E1N] was 3.42; that for FILGCPLPDPNNYYHRRNEMTTTD [E1F] was 1.83; that for KILGCPLPDPNNYYHRRNEMTTTD [E1K] was 3.18.
The value for EILGCPLPDPNNYYVRRNEMTTTD [H15V] was 3.1.
For EILGCPLPDPNNYYTRRNEMTTTD [H15T] the value was 3.76; for EILGCPLPDPNNYYPRRNEMTTTD [H15P], 3.64; for EILGCPLPDPNNYYHRRNEHTTTD [M20H], 3.69.
For EILGCPLPDPNNYYHRRNEPTTTD [M20P], the protein stability index is 3.92.
As for EILGCPLPDPNNYYHRRNEITTTD [M20I], the protein stability index was 3.69.
For EILGCPLPDPRNYYHRRNEMTTTD [N11R] the value was 3.04.
Turning to EILGCPLPDPENYYHRRNEMTTTD [N11E], the protein stability index was 4.07.
EILGCPLPDPANYYHRRNEMTTTD [N11A]: the protein stability index turned out to be 3.43.
For EILGCPLPDPFNYYHRRNEMTTTD [N11F] the value was 2.96.
EILGCKLPDPNNYYHRRNEMTTTD [P6K]: the protein stability index is 2.76.
The value for EILGCHLPDPNNYYHRRNEMTTTD [P6H] was 2.94; that for EILGCDLPDPNNYYHRRNEMTTTD [P6D] was 3.95; that for EILGCFLPDPNNYYHRRNEMTTTD [P6F] was 1.91.
For EILGCWLPDPNNYYHRRNEMTTTD [P6W] the value was 2.46; for EILGCPLPDPNNYPHRRNEMTTTD [Y14P], 4.41.
Turning to EILGCPLPDPNNYQHRRNEMTTTD [Y14Q], the protein stability index is 3.96.
The value for EILGCPLPDPNNYNHRRNEMTTTD [Y14N] was 4.17.
With EILGCPLPDPNNYYHRPNEMTTTD [R17P], the protein stability index came out at 4.15.
For EILGCPLPDPNNYYHRQNEMTTTD [R17Q] the value was 4.02.
The value for EILGCPLPDPNNYYHRNNEMTTTD [R17N] was 4.04.
For EILGCPLPDPNNYYHRRNEMTTAD [T23A] the value was 3.65; for EILGCPLPDPNNYYHRRNEMTTED [T23E], 4.3; for EILGCPCPDPNNYYHRRNEMTTTD [L7C], 3.83.
EILGCPKPDPNNYYHRRNEMTTTD [L7K]: the protein stability index was found to be 3.88.
The value for EILGCPNPDPNNYYHRRNEMTTTD [L7N] was 4.13; that for EILGCPDPDPNNYYHRRNEMTTTD [L7D] was 4.04; that for EILGCPIPDPNNYYHRRNEMTTTD [L7I] was 3.79.
For EILGCPLPDPNNVYHRRNEMTTTD [Y13V] the value was 4.03; for EILGCPLPDPNNRYHRRNEMTTTD [Y13R], 4.04.
The value for EILGCPLPDPNNMYHRRNEMTTTD [Y13M] was 4.
For EILGCPLPDPNNYYHRRNEMTITD [T22I], the protein stability index amounted to 2.81.
Consider EILGCPLPDPNNYYHRRNEMTMTD [T22M], for which the protein stability index amounted to 3.28.
The value for EILGCPLPDPNNYYHRRNEMTWTD [T22W] was 1.85; that for EILYCPLPDPNNYYHRRNEMTTTD [G4Y] was 3.13.
The value for EILFCPLPDPNNYYHRRNEMTTTD [G4F] was 2.69; that for EILDCPLPDPNNYYHRRNEMTTTD [G4D] was 3.96; that for EILTCPLPDPNNYYHRRNEMTTTD [G4T] was 3.49.
For EILCCPLPDPNNYYHRRNEMTTTD [G4C] the value was 3.47; for EILGCPLPDPNMYYHRRNEMTTTD [N12M], 3.41; for EILGCPLPDPNLYYHRRNEMTTTD [N12L], 3.42.
Take EILGCPLPDPNWYYHRRNEMTTTD [N12W]: the protein stability index was determined as 2.79.
Regarding EILGCPLPDPNPYYHRRNEMTTTD [N12P], the protein stability index came to 3.45.
For EILGCPLPDPNKYYHRRNEMTTTD [N12K] the value was 2.77; for EILGCPLPDPNVYYHRRNEMTTTD [N12V], 3.17; for EILGCPLPDPNNYYHRRNWMTTTD [E19W], 2.09.
For EILGCPLPDPNNYYHRRNVMTTTD [E19V] the value was 2.71; for EILGCPLPDPNNYYHRRNCMTTTD [E19C], 2.8; for EILGCPLPDPNNYYHRRNIMTTTD [E19I], 2.19.
Consider EILGCPLPDPNNYYHRRAEMTTTD [N18A], for which the protein stability index came to 3.3.
For EILGCPLPDPNNYYHRRDEMTTTD [N18D] the value was 4.23; for EILGCPLPDPNNYYHRRHEMTTTD [N18H], 3.37.
With EILGCPLPDPNNYYHRRYEMTTTD [N18Y], the protein stability index came to 2.67.
The value for EILGCPLPDPNNYYHRRQEMTTTD [N18Q] was 3.7.
The value for EILGCPLPDPNNYYHRRREMTTTD [N18R] was 3.19.
In the case of EILGCPLPDPNNYYHRRFEMTTTD [N18F], the protein stability index worked out at 2.41.
For ESLGCPLPDPNNYYHRRNEMTTTD [I2S] the value was 4.51; for EILGCPLPDPNNYYHRRNEMTTTP [D24P], 2.49; for EILGCPLPDPNNYYHRRNEMTTTY [D24Y], 2.29.
The value for EILGCPLPDPNNYYHRRNEMTTTM [D24M] was 2.28.
For EILGCPLPDPNNYYHRRNEMTTTA [D24A] the value was 2.61; for EILGCPLLDPNNYYHRRNEMTTTD [P8L], 2.66.
For EILGCPLSDPNNYYHRRNEMTTTD [P8S], the protein stability index was 3.17.
Take EILGCPLEDPNNYYHRRNEMTTTD [P8E]: the protein stability index is 3.88.
EILGCPLCDPNNYYHRRNEMTTTD [P8C]: the protein stability index is 2.4.
Consider EILGCPLDDPNNYYHRRNEMTTTD [P8D], for which the protein stability index was 4.22.
The value for EILGCPLPDTNNYYHRRNEMTTTD [P10T] was 3.6; that for EILGCPLPDRNNYYHRRNEMTTTD [P10R] was 3.49.
EILGCPLPDMNNYYHRRNEMTTTD [P10M]: the protein stability index turned out to be 3.44.
The value for EILGCPLPDVNNYYHRRNEMTTTD [P10V] was 3.46.
Turning to EILGCPLPDHNNYYHRRNEMTTTD [P10H], the protein stability index worked out at 3.66.
The value for EILGCPLPDLNNYYHRRNEMTTTD [P10L] was 2.8.
With EIPGCPLPDPNNYYHRRNEMTTTD [L3P], the protein stability index amounted to 4.7.
For EIMGCPLPDPNNYYHRRNEMTTTD [L3M] the value was 4.05; for EIAGCPLPDPNNYYHRRNEMTTTD [L3A], 4.09.
For EINGCPLPDPNNYYHRRNEMTTTD [L3N] the value was 3.78; for EIHGCPLPDPNNYYHRRNEMTTTD [L3H], 4.16.
The value for EILGCPLPAPNNYYHRRNEMTTTD [D9A] was 3.07; that for EILGCPLPKPNNYYHRRNEMTTTD [D9K] was 2.85.
EILGCPLPVPNNYYHRRNEMTTTD [D9V]: the protein stability index worked out at 3.04.
For EILGQPLPDPNNYYHRRNEMTTTD [C5Q] the value was 3.85; for EILGVPLPDPNNYYHRRNEMTTTD [C5V], 3.41; for EILGMPLPDPNNYYHRRNEMTTTD [C5M], 3.83.
EILGWPLPDPNNYYHRRNEMTTTD [C5W]: the protein stability index was determined as 2.72.
As to EILGCPLPDPNNYYHRRNEMYTTD [T21Y], the protein stability index is 2.81.
The value for EILGCPLPDPNNYYHRRNEMRTTD [T21R] was 3.05; that for EILGCPLPDPNNYYHRRNEMHTTD [T21H] was 2.91; that for EILGCPLPDPNNYYHPRNEMTTTD [R16P] was 3.55.
For EILGCPLPDPNNYYHIRNEMTTTD [R16I] the value was 3.21; for EILGCPLPDPNNYYHKRNEMTTTD [R16K], 3.52.
